{"source": "paper PMC3735194", "about": "(mBio, 2013)", "data": [{"biological_target": "the molecule itself", "assay": "native MS", "values": [{"protein": "D166A mutant ADI (enzyme, UniProt P0C0B3 1-411, looked up) MTAQTPIHVYSEIGKLKKVLLHRPGKEIENLMPDYLERLLFDDIPFLEDAQKEHDAFAQALRDEGIEVLYLETLAAESLVTPEIREAFIDEYLSEANIRGRATKKAIRELLMAIEDNQELIEKTMAGVQKSELPEIPASEKGLTDLVESNYPFAIDPMPNLYFTRAPFATIGTGVSLNHMFSETRNRETLYGKYIFTHHPIYGGGKVPMVYDRNETTRIEGGDELVLSKDVLAVGISQRTDAASIEKLLVNIFKQNLGFKKVLAFEFANNRKFMHLDTVFTMVDYDKFTIHPEIEGDLRVYSVTYDNEELHIVEEKGDLAELLAANLGVEKVDLIRCGGDNLVAAGREQWNDGSNTLTIAPGVVVVYNRNTITNAILESKGLKLIKIHGSELVRGRGGPRCMSMPFEREDI", "stoichiometry N": 2}, {"protein": "C401A mutant ADI (enzyme, UniProt P0C0B3 1-411, looked up) MTAQTPIHVYSEIGKLKKVLLHRPGKEIENLMPDYLERLLFDDIPFLEDAQKEHDAFAQALRDEGIEVLYLETLAAESLVTPEIREAFIDEYLSEANIRGRATKKAIRELLMAIEDNQELIEKTMAGVQKSELPEIPASEKGLTDLVESNYPFAIDPMPNLYFTRDPFATIGTGVSLNHMFSETRNRETLYGKYIFTHHPIYGGGKVPMVYDRNETTRIEGGDELVLSKDVLAVGISQRTDAASIEKLLVNIFKQNLGFKKVLAFEFANNRKFMHLDTVFTMVDYDKFTIHPEIEGDLRVYSVTYDNEELHIVEEKGDLAELLAANLGVEKVDLIRCGGDNLVAAGREQWNDGSNTLTIAPGVVVVYNRNTITNAILESKGLKLIKIHGSELVRGRGGPRAMSMPFEREDI", "stoichiometry N": 4}, {"protein": "D277A mutant ADI (enzyme, UniProt P0C0B3 1-411, looked up) MTAQTPIHVYSEIGKLKKVLLHRPGKEIENLMPDYLERLLFDDIPFLEDAQKEHDAFAQALRDEGIEVLYLETLAAESLVTPEIREAFIDEYLSEANIRGRATKKAIRELLMAIEDNQELIEKTMAGVQKSELPEIPASEKGLTDLVESNYPFAIDPMPNLYFTRDPFATIGTGVSLNHMFSETRNRETLYGKYIFTHHPIYGGGKVPMVYDRNETTRIEGGDELVLSKDVLAVGISQRTDAASIEKLLVNIFKQNLGFKKVLAFEFANNRKFMHLATVFTMVDYDKFTIHPEIEGDLRVYSVTYDNEELHIVEEKGDLAELLAANLGVEKVDLIRCGGDNLVAAGREQWNDGSNTLTIAPGVVVVYNRNTITNAILESKGLKLIKIHGSELVRGRGGPRCMSMPFEREDI", "stoichiometry N": 2}, {"protein": "E220A mutant ADI (enzyme, UniProt P0C0B3 1-411, looked up) MTAQTPIHVYSEIGKLKKVLLHRPGKEIENLMPDYLERLLFDDIPFLEDAQKEHDAFAQALRDEGIEVLYLETLAAESLVTPEIREAFIDEYLSEANIRGRATKKAIRELLMAIEDNQELIEKTMAGVQKSELPEIPASEKGLTDLVESNYPFAIDPMPNLYFTRDPFATIGTGVSLNHMFSETRNRETLYGKYIFTHHPIYGGGKVPMVYDRNETTRIAGGDELVLSKDVLAVGISQRTDAASIEKLLVNIFKQNLGFKKVLAFEFANNRKFMHLDTVFTMVDYDKFTIHPEIEGDLRVYSVTYDNEELHIVEEKGDLAELLAANLGVEKVDLIRCGGDNLVAAGREQWNDGSNTLTIAPGVVVVYNRNTITNAILESKGLKLIKIHGSELVRGRGGPRCMSMPFEREDI", "stoichiometry N": 2}, {"protein": "H275A mutant ADI (enzyme, UniProt P0C0B3 1-411, looked up) MTAQTPIHVYSEIGKLKKVLLHRPGKEIENLMPDYLERLLFDDIPFLEDAQKEHDAFAQALRDEGIEVLYLETLAAESLVTPEIREAFIDEYLSEANIRGRATKKAIRELLMAIEDNQELIEKTMAGVQKSELPEIPASEKGLTDLVESNYPFAIDPMPNLYFTRDPFATIGTGVSLNHMFSETRNRETLYGKYIFTHHPIYGGGKVPMVYDRNETTRIEGGDELVLSKDVLAVGISQRTDAASIEKLLVNIFKQNLGFKKVLAFEFANNRKFMALDTVFTMVDYDKFTIHPEIEGDLRVYSVTYDNEELHIVEEKGDLAELLAANLGVEKVDLIRCGGDNLVAAGREQWNDGSNTLTIAPGVVVVYNRNTITNAILESKGLKLIKIHGSELVRGRGGPRCMSMPFEREDI", "stoichiometry N": 2}]}]}
